Measurements reported in patent US20230114801A1 (SYSTIMMUNE, published 2023).

T1: CD19 (UniProt P15391 20-291, limits assumed)
T1 sequence (looked up): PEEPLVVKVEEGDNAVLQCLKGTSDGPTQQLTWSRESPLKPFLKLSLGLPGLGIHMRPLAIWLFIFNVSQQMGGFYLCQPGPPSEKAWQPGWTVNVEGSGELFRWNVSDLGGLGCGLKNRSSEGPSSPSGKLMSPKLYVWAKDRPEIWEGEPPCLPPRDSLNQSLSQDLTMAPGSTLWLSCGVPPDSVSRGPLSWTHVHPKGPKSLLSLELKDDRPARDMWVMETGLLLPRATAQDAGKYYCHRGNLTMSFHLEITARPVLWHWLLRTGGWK


How the values were obtained:
[1] = target: T2, human 4-1BB (human, UniProt Q07011 24-186, limits assumed); assay: antigen binding kinetics; method not given
T2 construct: Soluble antigen in Octet; construct not described

[2] = target: T1, CD19; assay: antigen binding kinetics; method not given
[3] = target: T3, human PD-L1 (human, UniProt Q9NZQ7 19-238); assay: antigen binding kinetics; method not given
T3 construct: Soluble antigen in Octet; bought; also called human PD-L1 (Acro PD1-H5229)

[4] = target: T4, human CD3 (human, UniProt P07766 23-126; P04234 22-105); assay: antigen binding kinetics; method not given
T4 construct: also called His-tagged human CD3; human CD3 (Acro CDD-H52W1)

[5] = target: T2, human 4-1BB; assay: BLI (Octet), binder on AHC sensor, 100 nM human antigen, 1:1 fit
[6] = target: T5, human EGFR (human, UniProt P00533 25-645, limits assumed); assay: as above
T5 construct: Soluble antigen in Octet; construct not described

[7] = target: T3, human PD-L1; assay: as above
[8] = target: T4, human CD3; assay: as above

Kd [1] [nM]	Kd [2] [nM]	Kd [3] [nM]	Kd [4] [nM]	Kd [5] [nM]	Kd [6] [nM]	Kd [7] [nM]	Kd [8] [nM]	Binder
14.8	1.89	1.1	5.23	–	–	–	–	SI-38P11 (other, penta-miniGNC; D1 αCD20 scFv, D2 αCD19, D3 αCD3 Fab without additional disulphide, D4 α4-1BB, D5 αPD-L1 scFv) chain 1: QIVLSQSPAILSASPGEKVTMTCRASSSVSYIHWFQQKPGSSPKPWIYATSNLASGVPVRFSGSGSGTSYSLTISRVEAEDAATYYCQQWTSNPPTFGGGTKLTVLGGGGSGGGGSGGGGSGGGGSQVQLQQPGAELVKPGASVKMSCKASGYTFTSYNMHWVKQTPGRGLEWIGAIYPGNGDTSYNQKFKGKATLTADKSSSTAYMQLSSLTSEDSAVYYCARSTYYGGDWYFNVWGAGTTVTVSSGGGGSGGGGSEVQLVESGGGLVQPGGSLRLSCAASGFTISTNAMSWVRQAPGKGLEWIGVITGRDITYYASWAKGRFTISRDNSKNTLYLQMNSLRAEDTAVYYCARDGGSSAITSNNIWGQGTLVTVSSASTKGPSVFPLAPSSKSTSGGTAALGCLVKDYFPEPVTVSWNSGALTSGVHTFPAVLQSSGLYSLSSVVTVPSSSLGTQTYICNVNHKPSNTKVDKRVEPKSCDKTHTCPPCPAPEAAGGPSVFLFPPKPKDTLMISRTPEVTCVVVDVSHEDPEVKFNWYVDGVEVHNAKTKPREEQYNSTYRVVSVLTVLHQDWLNGKEYKCAVSNKALPAPIEKTISKAKGQPREPQVYTLPPSRDELTKNQVSLSCAVKGFYPSDIAVEWESNGQPENNYKTTPPVLDSDGSFFLVSKLTVDKSRWQQGNVFSCSVMHEALHNHYTQKSLSLSPGGGGGSGGGGSDVVMTQSPSSVSASVGDRVTITCQASQNIRTYLSWYQQKPGKAPKLLIYAAANLASGVPSRFSGSGSGTDFTLTISDLEPGDAATYYCQSTYLGTDYVGGAFGGGTKLTVLGGGGSGGGGSGGGGSGGGGSEVQLVESGGGLVQPGGSLRLSCTASGFTISSYHMQWVRQAPGKGLEYIGTISSGGNVYYASSARGRFTISRPSSKNTVDLQMNSLRAEDTAVYYCARDSGYSDPMWGQGTLVTVSS chain 2: ENVLTQSPASLSASPGERVTITCSASSSVSYMHWYQQKPGQAPKLWIYDTSKLASGVPSRFSGSGSGNDHTLTISSMEPEDFATYYCFQGSVYPFTFGQGTKVTVLGGGGSGGGGSGGGGSGGGGSQVTLKESGPGLVQPGQTLSLTCAFSGFSLSTSGMGVGWIRQPPGKGLEWLAHIWWDDDKRYNPALKSRLTISKDTSKNQVYLQMNSLDAEDTAVYYCARMELWSYYFDYWGQGTLVTVSSGGGGSGGGGSDVVMTQSPSTLSASVGDRVTINCQASESISSWLAWYQQKPGKAPKLLIYEASKLASGVPSRFSGSGSGTEFTLTISSLQPDDFATYYCQGYFYFISRTYVNSFGGGTKVEIKRTVAAPSVFIFPPSDEQLKSGTASVVCLLNNFYPREAKVQWKVDNALQSGNSQESVTEQDSKDSTYSLSSTLTLSKADYEKHKVYACEVTHQGLSSPVTKSFNRGECGGDKTHTCPPCPAPEAAGGPSVFLFPPKPKDTLMISRTPEVTCVVVDVSHEDPEVKFNWYVDGVEVHNAKTKPREEQYNSTYRVVSVLTVLHQDWLNGKEYKCAVSNKALPAPIEKTISKAKGQPREPQVYTLPPSRDELTKNQVSLWCLVKGFYPSDIAVEWESNGQPENNYKTTPPVLDSDGSFFLYSKLTVDKSRWQQGNVFSCSVMHEALHNRFTQKSLSLSPGGGGGSGGGGSDIQMTQSPSTLSASVGDRVTITCQASQSISSHLNWYQQKPGKAPKLLIYKASTLASGVPSRFSGSGSGTEFTLTISSLQPDDFATYYCQQGYSWGNVDNVFGGGTKVTVLGGGGSGGGGSGGGGSGGGGSEVQLLESGGGLVQPGGSLSLSCAASGFSFSSGYDMCWVRQAPGKGLEWIACIAAGSAGITYDANWAKGRFTISRDNSKNTLYLQMNSLRAEDTAVYYCARSAFSFDYAMDLWGQGTLVTVSS
–	–	–	–	21.2	11.1	2.7	20.1	SI-75P9 (other, penta-miniGNC; D1 αEGFR, D2 αCD3, D3 αHER3 (Fab), D4 α4-1BB, D5 αPD-L1) chain 1: EIVLTQSPSTLSVSPGERATFSCRASQSIGTNIHWYQQKPGKPPRLLIKYASESISGIPDRFSGSGSGTEFTLTISSVQSEDFAVYYCQQNNNWPTTFGPGTKLTVLGGGGSGGGGSGGGGSGGGGSQVQLQQSGPGLVKPSETLSITCTVSGFSLTNYGVHWIRQAPGKGLEWLGVIWSGGNTDYNTPFTSRFTITKDNSKNQVYFKLRSVRADDTAIYYCARALTYYDYEFAYWGQGTLVTVSSGGGGSGGGGSQVQLQESGGGLVKPGGSLRLSCAASGFTFSSYWMSWVRQAPGKGLEWVANINRDGSASYYVDSVKGRFTISRDDAKNSLYLQMNSLRAEDTAVYYCARDRGVGYFDLWGRGTLVTVSSASTKGPSVFPLAPSSKSTSGGTAALGCLVKDYFPEPVTVSWNSGALTSGVHTFPAVLQSSGLYSLSSVVTVPSSSLGTQTYICNVNHKPSNTKVDKRVEPKSCDKTHTCPPCPAPEAAGGPSVFLFPPKPKDTLMISRTPEVTCVVVDVSHEDPEVKFNWYVDGVEVHNAKTKPREEQYNSTYRVVSVLTVLHQDWLNGKEYKCAVSNKALPAPIEKTISKAKGQPREPQVYTLPPSRDELTKNQVSLSCAVKGFYPSDIAVEWESNGQPENNYKTTPPVLDSDGSFFLVSKLTVDKSRWQQGNVFSCSVMHEALHNHYTQKSLSLSPGGGGGSGGGGSDVVMTQSPSSVSASVGDRVTITCQASQNIRTYLSWYQQKPGKAPKLLIYAAANLASGVPSRFSGSGSGTDFTLTISDLEPGDAATYYCQSTYLGTDYVGGAFGGGTKLTVLGGGGSGGGGSGGGGSGGGGSEVQLVESGGGLVQPGGSLRLSCTASGFTISSYHMQWVRQAPGKGLEYIGTISSGGNVYYASSARGRFTISRPSSKNTVDLQMNSLRAEDTAVYYCARDSGYSDPMWGQGTLVTVSS chain 2: DVVMTQSPSTLSASVGDRVTINCQASESISSWLAWYQQKPGKAPKLLIYEASKLASGVPSRFSGSGSGTEFTLTISSLQPDDFATYYCQGYFYFISRTYVNSFGGGTKVEIKGGGGSGGGGSGGGGSGGGGSEVQLVESGGGLVQPGGSLRLSCAASGFTISTNAMSWVRQAPGKGLEWIGVITGRDITYYASWAKGRFTISRDNSKNTLYLQMNSLRAEDTAVYYCARDGGSSAITSNNIWGQGTLVTVSSGGGGSGGGGSQSALTQPASVSGSPGQSITISCTGTSSDVGGYNFVSWYQQHPGKAPKLMIYDVSDRPSGVSDRFSGSKSGNTASLIISGLQADDEADYYCSSYGSSSTHVIFGGGTKVTVLRTPKANPTVTLFPPSSEELQANKATLVCLISDFYPGAVTVAWKADGSPVKAGVETTKPSKQSNNKYAASSYLSLTPEQWKSHRSYSCQVTHEGSTVEKTVAPTECSGGDKTHTCPPCPAPEAAGGPSVFLFPPKPKDTLMISRTPEVTCVVVDVSHEDPEVKFNWYVDGVEVHNAKTKPREEQYNSTYRVVSVLTVLHQDWLNGKEYKCAVSNKALPAPIEKTISKAKGQPREPQVYTLPPSRDELTKNQVSLWCLVKGFYPSDIAVEWESNGQPENNYKTTPPVLDSDGSFFLYSKLTVDKSRWQQGNVFSCSVMHEALHNRFTQKSLSLSPGGGGGSGGGGSDIQMTQSPSTLSASVGDRVTITCQASQSISSHLNWYQQKPGKAPKLLIYKASTLASGVPSRFSGSGSGTEFTLTISSLQPDDFATYYCQQGYSWGNVDNVFGGGTKVTVLGGGGSGGGGSGGGGSGGGGSEVQLLESGGGLVQPGGSLSLSCAASGFSFSSGYDMCWVRQAPGKGLEWIACIAAGSAGITYDANWAKGRFTISRDNSKNTLYLQMNSLRAEDTAVYYCARSAFSFDYAMDLWGQGTLVTVSS
